Here are results for one molecule from article PMC9130890 (2022).

The assay deals with autologous SHIV_(1157ipd3N4) gp120 monomer (SHIV_(1157ipd3N4)). The experiment in a line: BLI.

B1: unmutated common ancestor (UCA) of the J038 lineage (antibody, V domains shown)
VH: QLQLQESGPGLVKPSETLSLTCAVSGGSISSNYWSWIRQPPGKGLEWIGRISGSGGSTDYNPSLKSRVTISTDTSKNQFSLKLSSVTAADTAVYYCAREVAEDDYGYYQPYFDYWGQGVLVTVSS
VL: DIQMTQSPSSLSASVGDRVTITCRASQGISSYLAWYQQKPGKAPKLLIYAASSLQSGVPSRFSGSGSGTDFTLTISSLQPEDFATYYCQQYNSLPLTFGGGTKVEIK
In turn, B1 registered a Kd of 37.8 nM and a koff of 0.0023 s⁻¹.

The Kd is the concentration at which binding is half-saturated. The low end stands for a tighter complex, the high end for a looser complex. In general, koff refers to the first-order rate constant of dissociation. A lower koff goes with a long-lived complex.
